Results published in paper PMC8202955, “The nonreceptor tyrosine kinase SRMS inhibits autophagy and promotes tumor growth by phosphorylating the scaffolding protein FKBP51” (PLoS Biology, 2021).

Assays:
[1] = phosphorylation at Y54
[2] = target: T1, SRMS (Src-related kinase lacking C-terminal regulatory tyrosine and N-terminal myristylation sites) (Homo sapiens, UniProt Q9H3Y6); experiment: peptide substrate mobility shift kinase assay with purified recombinant kinase domain ([…] SRMS, […] ATP); type: biochemical
T1 construct: human SRMS kinase domain (residues 221 to 486)
T1 sequence (Q9H3Y6 221-486): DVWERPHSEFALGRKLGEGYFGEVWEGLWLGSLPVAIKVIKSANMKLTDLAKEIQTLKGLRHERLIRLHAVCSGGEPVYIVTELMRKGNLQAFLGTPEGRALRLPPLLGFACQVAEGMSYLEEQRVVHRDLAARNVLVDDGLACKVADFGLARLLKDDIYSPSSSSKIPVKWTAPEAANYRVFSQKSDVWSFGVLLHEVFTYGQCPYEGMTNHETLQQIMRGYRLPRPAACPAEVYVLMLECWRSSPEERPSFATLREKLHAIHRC

| Molecule | degradation_or_half_life [1] | IC50 [2] [µM] |
| --- | --- | --- |
| FKBP51: SRMS knockout (CRISPR/Cas9) | decreases | – |
| C=CC(=O)N1CCC[C@@H](n2nc(-c3ccc(Oc4ccccc4)cc3)c3c(N)ncnc32)C1 [ibrutinib] | – | 0.033 |
| FKBP51: ibrutinib (SRMS inhibitor) | decreases | – |
